T1: human podocalyxin as displayed on tumor cells (A172, SKOV3, MIA PaCa-2, MDA-MB-231, OVCAR10) (human, UniProt O00592 23-558, post-translational glycan recognised by Podo447 (O-linked, with beta-GalNAc that may be terminal; site not stated))
T1 construct: Endogenous podocalyxin of tumor cell lines, on cells, in lysates or in cryosections; also called tumor-associated Podocalyxin
T1 chain: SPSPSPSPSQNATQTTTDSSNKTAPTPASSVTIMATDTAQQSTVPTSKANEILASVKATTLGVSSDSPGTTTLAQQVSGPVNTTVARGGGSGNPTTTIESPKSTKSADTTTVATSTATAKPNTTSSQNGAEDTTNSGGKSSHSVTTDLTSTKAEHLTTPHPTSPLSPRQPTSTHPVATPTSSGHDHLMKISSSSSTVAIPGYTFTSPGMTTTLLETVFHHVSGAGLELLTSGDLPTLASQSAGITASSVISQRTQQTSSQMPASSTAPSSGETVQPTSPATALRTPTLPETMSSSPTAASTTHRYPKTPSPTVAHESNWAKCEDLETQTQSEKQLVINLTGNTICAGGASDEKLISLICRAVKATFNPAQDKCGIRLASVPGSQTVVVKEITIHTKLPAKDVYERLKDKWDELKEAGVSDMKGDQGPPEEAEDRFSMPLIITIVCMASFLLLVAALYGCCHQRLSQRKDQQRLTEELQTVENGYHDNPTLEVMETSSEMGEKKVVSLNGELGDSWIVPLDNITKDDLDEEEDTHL

B1: Humanized Podo447 (humanized_podo447VH_hIgG1C with humanized_podo447VL6_hIgkC) (antibody, V domains shown)
VH: EVQLVESGGGLVQPGRSLRLSCTASGFSLSGYQMNWVRQAPGKGLEWVGYIWSDGGTDYTASVKGRFTISRDGSKSIAYLQMNSLKTEDTAVYYCAREGYWLGAFDPWGQGTSVTVSA
VL: AAQLTQSPSPLSASVGDRVTITCQSSQSVHHKNDLAWYQQKPGKAPKLLIYYTSTLASGVPSRFSGSGSGTDFTLTISSLQPEDFATYYCAGVYEGSSDNRAFGGGTKVEIKR
notes: The labels R0943_A046 and CDRD-0103-001 are tied to this molecule only by the word 'Humanized'; also called R0943_A046 (Humanized); CDRD-0103-001 (Humanized)
B2: Podo447 antibody, recombinant rabbit/human IgG1 chimera (antibody, V domains shown)
VH: QSLEESGGRLVTPGTPLTLTCTASGFSLSGYQMNWVRQAPGKGLEWIGYIWSDGGTDYASWAKGRFTISKTSSTTVDLKMTSLTTEDTATYFCAREGYWLGAFDPWGPGTLVTVSS
VL: AAVLTQTPSPVSAAVGATVSVSCQSSQSVHHKNDLAWFQQKPGQPPKLLIYYTSTLASGVPSRFKGSGSGTQFTLTISDLECDDAATYYCAGVYEGSSDNRAFGGGTEVVVKR
notes: also called anti-Podo

Key:
[1] = target: WT Podocalyxin (on normal cells and tissues) (human) (UniProt O00592); assay: flow cytometry, live 293 cells
[2] = target: WT Podocalyxin (on normal cells and tissues) (human) (UniProt O00592); assay: flow cytometry, live HUVEC cells
[3] = target: cPodo/CHO; assay: flow cytometry, live cPodo/CHO cells; Mock/CHO with this antibody: 2%
[4] = target: T1, human podocalyxin as displayed on tumor …; assay: flow cytometry, titrated antibody on A172 cells, four-parameter fit
Description: (§1) Briefly, A172 cells were detached using cell dissociation solution (Sigma-C5914) and incubated with titrated purified antibodies in 96-well V-bottom plates. Antibody binding was detected using a goat anti-human IgG-Fc-Alexa 647 secondary antibody (Jackson 109-605-098) and the cells were analyzed on the Intellicyt high throughput flow cytometer (HTFC).
Table immediately above: Statistical data using Graphpad Prism analysis software representing the data presented above. Values were calculated using a variable slope (four parameters) non-linear regression analysis.

[5] = target: T1, human podocalyxin as displayed on tumor …; assay: KinExA, titrated A172 cells with constant antibody, free antibody measured
Description: Example 13—Determination of Affinity of PODO447 and PODO83 for Cellular PODXL Antigens by Kinetic Exclusion Assay The concentration dependence of free anti-podo antibody as a function of A172 cell number was determined using a Sapidyne KinExA 3200. […] A172 cells and cell bound antibodies were then isolated by centrifugation. Supernatant containing free, unbound antibody was then transferred to a new tube. In the KinExA, a new column of PMMA beads coated with a Gt anti-IgG-Fc capture antibody is packed for each sample assayed. The supernatant containing free unbound antibody is passed over the column. The amount of free antibody captured on the PMMA beads was then measured using a Gt anti-IgG-Fc-A647. The concentration of free antibody over the entire 12 step dilution series was then used to determine the antibody Kd's using the standard Kd template in the KineExA Pro Software.
Table immediately above: Kinetic exclusion assay (KinExA) affinity determination of humanized and rabbit/human chimeric antibodies to Podocalyxin endogenously expressed on A172 cells. A172 cells were titrated and incubated with constant antibody concentrations and allowed to reach equilibrium with a 16 hour incubation. Free, unbound antibody in the supernatant was then captured on the KinExA 3200 using poly(methyl methacrylate) (PMMA) beads coated with goat anti-human IgG-Fc capture antibodies and detected with goat anti-human IgG-Fc-alexa 647 label.

[6] = target: T1, human podocalyxin as displayed on tumor …; assay: flow cytometry titration on A172 cells, goat anti-human IgG-Fc-Alexa 647
Description: as §1

[7] = target: WT Podocalyxin (on normal cells and tissues) (human) (UniProt O00592); assay: IHC, Normal Kidney
[8] = target: T1, human podocalyxin as displayed on tumor …; assay: flow cytometry, MDA.MB.231 Podo KD
Description: (§2) Cells were cultured under continuous antibiotic selection with puromycin (4 µg/ml; Invitrogen, Burlington, ON) and G418 (lmg/ml; Calbiochem, Darmstadt, Germany). shRNA constructs were generously provided by Dr. John Wilkins (University of Manitoba, Winnipeg, MB) and the infections were performed by Michelle Turvey and Dr. Shaun McColl (University of Adelaide, Australia). 2.5×10^5 MIA PaCa-2 cells were seeded per well in a 6-well TC-Treated plate (Costar, cat#3516). After incubation overnight, cells were transfected with 10 nM siRNA following the guidelines of the Oligofectamine protocol (cat#12252-011, Invitrogen, Burlington, ON). Pre-Design and validated siRNA (PODXL siRNA, cat# s10770; Negative control No. 1 siRNA, cat#4390843) were obtained from Ambion (Thermo Fisher Scientific, Burlington, ON). Knock-downs were assessed by flow cytometry two days after transfection.
(§3) Sub-confluent cell lines were washed once with Ca^2+ and Mg^2+ free HBSS (Invitrogen, Carlsbad, Calif.) harvested with 0.25% Trypsin/EDTA (Invitrogen, Carlsbad, Calif.). Cells were quenched with normal growth media and centrifuged at 300×g for 5 minutes. Cells were washed once with FACS buffer (2% FBS, 2 mM EDTA, PBS, 0.05% NaAzide). Cells were blocked for 20 minutes at 4° C. in Blocking Buffer (2% rat serum, 2 µg/ml dilution of 2.4G2 (anti-CD16/CD32)) in a 96 well 'v' bottom plate. […]

[9] = target: T1, human podocalyxin as displayed on tumor …; assay: flow cytometry, MIA PaCa-2 PODXL siRNA
Description: as §2, §3

[10] = target: WT Podocalyxin (on normal cells and tissues) (human) (UniProt O00592); assay: IHC, Normal Cerebellum; Weak and Strong columns hold '-'
[11] = target: T1, human podocalyxin as displayed on tumor …; assay: KinExA kinetic exclusion assay, antigen: MDA-MB-231 Cells

Live cell GeoMean FL [1]	Live cell GeoMean FL [2]	% Shifting (FL4) Live Cells [3] [%]	LogIC50 [4]	Kd [5] [nM]	Kd High [5] [nM]	Kd Low [5] [nM]	EC50 (read off the curve) [6] [µg/mL]	IHC score Negative, cases of total [7] [%]	IHC score Weak, cases of total [7] [%]	decrease of binding on podocalyxin knockdown (fold) [8] [X]	decrease of binding on podocalyxin knockdown (fold) [9] [X]	IHC score Negative, cases of total [10]	Kd [11] [nM]	Kd High [11] [nM]	Kd Low [11] [nM]	Molecule
446	489	–	–	–	–	–	–	–	–	–	–	–	–	–	–	Control Rb/HuIgG1 (antibody)
556	484	1	–	–	–	–	–	–	–	–	–	–	–	–	–	MsIgG2a (antibody)
–	–	–	2.09	0.0144	0.0459	0.00459	~0.1	–	–	–	–	–	–	–	–	B1
6710	3970	–	2.28	0.00757	0.0249	0.0023	~0.2	98	1.9	2.5	10	0 of 10 cases	0.189	52.4	0.0425	B2

Reference: patent US11090383 (CENTRE FOR DRUG RESEARCH AND DEVELOPMENT, dated 2021)
